Reference: patent US20140127777A1 (CALIFORNIA INSTITUTE OF TECHNOLOGY, published 2014)

B1: A1-WT (designed binder)
chain: MRGSHHHHHHGSMASGDLENEYAQLEREVRSLEDEAAELEQKVSRLKNEIEDLAEIGDLNNTSGIRRPAAKLN
notes: Expressed in E. coli from pQE-A1 with an N-terminal His-tag; Forms dimeric coiled coils; entered as the single chain; also called wild-type A1
B2: FA1-92 (designed binder)
chain: MRGSHHHHHHGSMASGDLENEYAQLEREVRSLEDEAAELEQKVSRLKNEIEDLAEIGDLNNTSGIRRPAAKLN
modifications: leucines (eight per chain) replaced by 5,5,5-trifluoroleucine to 92% by amino acid analysis; mixed population of (2S,4S) and (2S,4R) diastereomers
notes: Expressed in an E. coli leucine auxotroph in medium with trifluoroleucine; The sample is heterogeneous; its main MALDI peak of 8736 corresponds to 8 substitutions; also called 92% fluorinated A1

What was measured:
[1] = biological target: the molecule itself; experiment: CD thermal unfolding, global two-state fit of the monomer to dimer transition, 1 M standard state
Protocol: Circular Dichroism (CD) Analysis. CD spectra were recorded on an Aviv 62DS spectropolarimeter (Lakewood, N.J.) in PBS buffer, pH 7.4. All peptide concentrations were determined by amino acid analysis of a stock solution (5 mg/ml). Experiments were performed in a rectangular cell with pathlength of 1 cm for low concentration samples and pathlength of 1 mm for high concentration samples. Spectra were scanned from 250 nm to 200 nm with data taken every 1 nm. The temperature of the solution was maintained by a thermostatically controlled cuvette holder (HP model 89101A). Temperature scans were performed from 0° C. to 100° C. in 1° C. steps. Three scans were performed on a single sample and averaged. Each data point was collected after 30 seconds of thermal equilibration at the desired temperature. Urea titration scans were performed manually starting with the 8 M concentrated sample followed by serial dilution to the desired urea concentration. At each concentration, the sample was allowed to equilibrate for 5 min before recording the CD signal.

[2] = biological target: the molecule itself; experiment: CD thermal unfolding, global two-state fit of the monomer to dimer transition; difference against A1-WT at 37 °C

Protein | ΔG° (37° C.) [1] [kcal/mol] | ΔΔG° [2] [kcal/mol]
B1 | -10.7 | –
B2 | -13.1 | -2.4
